Assay results from IntAct's records for PubMed 17289582.

Target: fap24_human FAAP24 (UniProt Q9BTP7)
UniProt Q9BTP7, sequence (Q9BTP7 whole entry): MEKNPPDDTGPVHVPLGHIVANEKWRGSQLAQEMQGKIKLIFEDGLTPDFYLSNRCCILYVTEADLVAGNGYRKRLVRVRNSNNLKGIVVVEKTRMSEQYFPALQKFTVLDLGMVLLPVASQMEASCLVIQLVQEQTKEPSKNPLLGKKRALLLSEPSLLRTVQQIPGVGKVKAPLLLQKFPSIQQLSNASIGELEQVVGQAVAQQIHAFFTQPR

Fanconi anemia group M protein (Homo sapiens), Q8IYD8 K117R
effect of a mutation on the interaction: with no effect
